Results from IntAct's records for PubMed 29892012.

B1: RNA-binding protein 3 (Homo sapiens), P98179 (parent)
chain: MSSEEGKLFVGGLNFNTDEQALEDHFSSFGPISEVVVVKDRETQRSRGFGFITFTNPEHASVAMRAMNGESLDGRQIRVDHAGKSARGTRGGGFGAHGRGRSYSRGGGDQGYGSGRYYDSRPGGYGYGYGRSRDYNGRNQGGYDRYSGGNYRDNYDN
partner: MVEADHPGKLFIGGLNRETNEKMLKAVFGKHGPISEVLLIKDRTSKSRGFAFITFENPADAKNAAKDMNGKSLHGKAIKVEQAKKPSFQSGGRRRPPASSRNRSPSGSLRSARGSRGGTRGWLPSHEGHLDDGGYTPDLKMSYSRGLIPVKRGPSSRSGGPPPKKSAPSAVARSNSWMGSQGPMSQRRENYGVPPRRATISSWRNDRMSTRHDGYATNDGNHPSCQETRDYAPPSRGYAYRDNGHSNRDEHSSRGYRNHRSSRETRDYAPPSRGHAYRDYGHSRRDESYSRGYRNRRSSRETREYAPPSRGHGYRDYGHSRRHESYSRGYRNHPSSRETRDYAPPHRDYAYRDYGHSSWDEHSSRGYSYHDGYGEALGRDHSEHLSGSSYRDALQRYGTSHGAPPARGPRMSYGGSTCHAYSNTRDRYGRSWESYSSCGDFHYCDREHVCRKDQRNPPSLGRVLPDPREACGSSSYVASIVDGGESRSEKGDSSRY
B2: Late cornified envelope protein 1B (Homo sapiens), Q5T7P3 (parent)
chain: MSCQQNQQQCQPPPKCIPKCPPKCLTPRCPPKCPPKCPPVSSCCSVSSGGCCGSSSGGSCGSSSGGCCSSGGGGCCLSHHRRRRSHCHRPQSSGCCSQPSGGSSCCGGGSGQHSGGCC
partner: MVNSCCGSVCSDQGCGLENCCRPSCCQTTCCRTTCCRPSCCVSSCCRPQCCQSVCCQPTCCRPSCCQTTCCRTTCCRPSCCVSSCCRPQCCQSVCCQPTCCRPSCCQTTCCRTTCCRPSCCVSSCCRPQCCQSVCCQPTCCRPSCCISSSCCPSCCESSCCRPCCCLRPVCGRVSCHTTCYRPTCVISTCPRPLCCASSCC
B3: Abl interactor 2 (Homo sapiens), Q9NYB9 (parent)
chain: MAELQMLLEEEIPGGRRALFDSYTNLERVADYCENNYIQSADKQRALEETKAYTTQSLASVAYLINTLANNVLQMLDIQASQLRRMESSINHISQTVDIHKEKVARREIGILTTNKNTSRTHKIIAPANLERPVRYIRKPIDYTILDDIGHGVKWLLRFKVSTQNMKMGGLPRTTPPTQKPPSPPMSGKGTLGRHSPYRTLEPVRPPVVPNDYVPSPTRNMAPSQQSPVRTASVNQRNRTYSSSGSSGGSHPSSRSSSRENSGSGSVGVPIAVPTPSPPSVFPAPAGSAGTPPLPATSASAPAPLVPATVPSSTAPNAAAGGAPNLADGFTSPTPPVVSSTPPTGHPVQFYSMNRPASRHTPPTIGGSLPYRRPPSITSQTSLQNQMNGGPFYSQNPVSDTPPPPPPVEEPVFDESPPPPPPPEDYEEEEAAVVEYSDPYAEEDPPWAPRSYLEKVVAIYDYTKDKEDELSFQEGAIIYVIKKNDDGWYEGVMNGVTGLFPGNYVESIMHYSE
partner: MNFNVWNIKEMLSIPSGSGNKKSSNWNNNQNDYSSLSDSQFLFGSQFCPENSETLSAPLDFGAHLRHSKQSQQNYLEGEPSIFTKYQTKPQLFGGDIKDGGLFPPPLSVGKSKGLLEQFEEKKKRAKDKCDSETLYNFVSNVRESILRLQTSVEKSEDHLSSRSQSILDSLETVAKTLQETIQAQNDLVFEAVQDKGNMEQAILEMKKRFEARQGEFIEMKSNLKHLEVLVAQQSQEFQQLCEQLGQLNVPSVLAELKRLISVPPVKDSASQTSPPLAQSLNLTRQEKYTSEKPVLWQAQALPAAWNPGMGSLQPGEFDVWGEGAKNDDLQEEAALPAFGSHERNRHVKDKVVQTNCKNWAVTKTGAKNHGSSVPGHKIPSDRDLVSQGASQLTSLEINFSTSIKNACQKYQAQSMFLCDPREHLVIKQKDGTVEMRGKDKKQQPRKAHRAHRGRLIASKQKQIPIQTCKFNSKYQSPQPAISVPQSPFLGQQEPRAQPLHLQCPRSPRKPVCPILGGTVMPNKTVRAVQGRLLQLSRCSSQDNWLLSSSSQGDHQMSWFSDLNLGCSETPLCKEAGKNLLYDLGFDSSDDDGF
B4: MOB kinase activator 3C (Homo sapiens), Q70IA8 (parent)
chain: MALCLKQVFAKDKTFRPRKRFEPGTQRFELYKKAQASLKSGLDLRSVVRLPPGENIDDWIAVHVVDFFNRINLIYGTMAERCSETSCPVMAGGPRYEYRWQDERQYRRPAKLSAPRYMALLMDWIEGLINDEEVFPTRVGVPFPKNFQQVCTKILTRLFRVFVHVYIHHFDSILSMGAEAHVNTCYKHFYYFIREFSLVDQRELEPLREMTERICH
partner: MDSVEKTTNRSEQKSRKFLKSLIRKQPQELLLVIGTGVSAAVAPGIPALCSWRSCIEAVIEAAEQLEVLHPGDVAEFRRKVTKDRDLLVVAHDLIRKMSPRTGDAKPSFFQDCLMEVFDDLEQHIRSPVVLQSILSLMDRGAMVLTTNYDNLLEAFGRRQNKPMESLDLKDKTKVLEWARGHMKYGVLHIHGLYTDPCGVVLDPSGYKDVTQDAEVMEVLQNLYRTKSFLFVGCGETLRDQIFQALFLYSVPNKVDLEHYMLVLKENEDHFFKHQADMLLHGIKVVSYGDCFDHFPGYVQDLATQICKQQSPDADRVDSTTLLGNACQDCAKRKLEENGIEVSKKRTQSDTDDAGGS
B5: Abl interactor 2 (Homo sapiens), Q9NYB9 (parent)
chain: B3 chain
partner: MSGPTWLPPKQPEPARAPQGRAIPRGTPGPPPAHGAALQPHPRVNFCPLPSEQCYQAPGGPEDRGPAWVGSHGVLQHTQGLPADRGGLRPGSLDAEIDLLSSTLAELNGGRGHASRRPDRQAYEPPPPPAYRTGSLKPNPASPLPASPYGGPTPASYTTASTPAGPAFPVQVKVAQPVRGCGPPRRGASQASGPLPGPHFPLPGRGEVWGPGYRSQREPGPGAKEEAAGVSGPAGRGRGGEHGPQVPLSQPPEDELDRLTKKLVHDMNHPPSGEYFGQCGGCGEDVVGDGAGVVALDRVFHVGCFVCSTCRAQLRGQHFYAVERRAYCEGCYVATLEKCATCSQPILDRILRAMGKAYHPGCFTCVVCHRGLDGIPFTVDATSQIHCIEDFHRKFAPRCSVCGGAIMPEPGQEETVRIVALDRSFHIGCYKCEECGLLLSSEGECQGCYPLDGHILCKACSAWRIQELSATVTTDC
B6: Forkhead box protein P3 (Homo sapiens), Q9BZS1 (parent)
chain: MPNPRPGKPSAPSLALGPSPGASPSWRAAPKASDLLGARGPGGTFQGRDLRGGAHASSSSLNPMPPSQLQLPTLPLVMVAPSGARLGPLPHLQALLQDRPHFMHQLSTVDAHARTPVLQVHPLESPAMISLTPPTTATGVFSLKARPGLPPGINVASLEWVSREPALLCTFPNPSAPRKDSTLSAVPQSSYPLLANGVCKWPGCEKVFEEPEDFLKHCQADHLLDEKGRAQCLLQREMVQSLEQQLVLEKEKLSAMQAHLAGKMALTKASSVASSDKGSCCIVAAGSQGPVVPAWSGPREAPDSLFAVRRHLWGSHGNSTFPEFLHNMDYFKFHNMRPPFTYATLIRWAILEAPEKQRTLNEIYHWFTRMFAFFRNHPATWKNAIRHNLSLHKCFVRVESEKGAVWTVDELEFRKKRSQRPSRCSNPTPGP

Variants of: B1
Details: with rby1a_human RBMY1A1, P0DJD3

Question: R145H was tested. Which “effect of a mutation on the interaction” value did it give?
Answer: with no effect

Variants of: B2
Details: with kr412_human KRTAP4-12, Q9BQ66

Question: How did the “effect of a mutation on the interaction” value turn out when C16Y was run?
Answer: disrupting interaction strength

Variants of: B3
Details: with iho1_human IHO1, Q8IYA8

Question: With E202K as the variant, how does the “effect of a mutation on the interaction” value read?
Answer: with no effect

Variants of: B3
Details: with iho1_human IHO1, Q8IYA8
Remark: another data set of the same source

Question: R373C was tested. Which “effect of a mutation on the interaction” value did it give?
Answer: with no effect

Variants of: B4
Details: with FAM118A

Question: Which “effect of a mutation on the interaction” value does the source give for I173F here?
Answer: disrupting interaction strength

Variants of: B5
Details: with trip6_human TRIP6, Q15654

Question: With E202K as the variant, how does the “effect of a mutation on the interaction” value read?
Answer: with no effect

Variants of: B5
Details: with trip6_human TRIP6, Q15654
Remark: another data set of the same source

Question: R373C was tested. Which “effect of a mutation on the interaction” value did it give?
Answer: with no effect

Variants of: B6
Details: with pr20e_human PRR20E

Question: With T108M as the variant, how does the “effect of a mutation on the interaction” value read?
Answer: with no effect

Variants of: B6
Details: with rbpms_human RBPMS

Question: With T108M as the variant, how does the “effect of a mutation on the interaction” value read?
Answer: with no effect
